According to FireProtDB (doi:10.1021/bi00458a027):
“And” between values parts separate entries of the source, which are not always exact repeats. Equal values may be shown once.

B1: Tryptophan synthase alpha chain, P0A877 (parent)
chain: MERYESLFAQLKERKEGAFVPFVTLGDPGIEQSLKIIDTLIEAGADALELGIPFSDPLADGPTIQNATLRAFAAGVTPAQCFEMLALIRQKHPTIPIGLLMYANLVFNKGIDEFYAQCEKVGVDSVLVADVPVEESAPFRQAALRHNVAPIFICPPNADDDLLRQIASYGRGYTYLLSRAGVTGAENRAALPLNHLVAKLKEYNAAPPLQGFGISAPDQVKAAIDAGAAGAISGSAIVKIIEQHINEPEKMLAALKVFVQPMKAATRS

Variants of: B1
Conditions: Escherichia coli (strain K12), pH 7.8, Urea, CD, Potassium phosphate 10 mM, structure 1WQ5, whole UniProt chain shown

Variant | denaturant m value (25 °C) | denaturant midpoint (higher = more stable) (25 °C) | unfolding free energy (25 °C) | ddG of mutation (higher = less stable) (25 °C) | denaturant m value (4 °C) | denaturant midpoint (higher = more stable) (4 °C)
G211V | 1.9 kcal/mol/M and 1.6 kcal/mol/M | 2.78 M and 4.3 M | 5.4 kcal/mol and 6.9 kcal/mol |  |  | 
G211W | 1.8 kcal/mol/M and 1.1 kcal/mol/M | 2.25 M and 3.62 M | 4.1 kcal/mol and 3.9 kcal/mol | 1.6 kcal/mol and 1.1 kcal/mol |  | 
G211R |  |  |  |  | 1.6 kcal/mol/M and 2.2 kcal/mol/M | 1.4 M and 3.28 M
G211E | 3 kcal/mol/M and 1.5 kcal/mol/M | 2.73 M and 3.72 M | 8.1 kcal/mol and 5.5 kcal/mol |  |  | 
G211D | 2 kcal/mol/M and 1.2 kcal/mol/M | 2.7 M and 3.61 M | 5.4 kcal/mol and 4.2 kcal/mol | 0.3 kcal/mol and 0.8 kcal/mol |  | 
G211S | 2.4 kcal/mol/M and 1.3 kcal/mol/M | 2.46 M and 3.97 M | 5.9 kcal/mol and 5.2 kcal/mol | -0.2 kcal/mol |  | 
